This note sets out measurements from US5969101.

In test [1] the target is c-Abl K290R.
The target of test [2] is c-Abl wild type, full length.
For test [3], the target named is P185 BCR-Abl.

For the substance “HA-tagged Abi-2Δ1-157 (pCGN/abi-2Δ1-157)”, the No. of Agar Colonies (per 10^4 cells) (agar colonies per 10^4 cells) was determined as 3 in test [1] and 563 in test [2].

With “HA-tagged Abi-2Δ1-100 (pCGN/abi-2Δ1-100)”, the relative transforming activity, colonies in soft agar of Rat1/P185 BCR-Abl cells in test [3] turned out to be 70%.
